Reference: publication PMC10786891, “Massively parallel profiling of RNA-targeting CRISPR-Cas13d”

T1: EsCas13d, nuclease-dead (Eubacterium siraeum, UniProt B0MS50, R295A;H300A;R849A;H854A)
T1 sequence: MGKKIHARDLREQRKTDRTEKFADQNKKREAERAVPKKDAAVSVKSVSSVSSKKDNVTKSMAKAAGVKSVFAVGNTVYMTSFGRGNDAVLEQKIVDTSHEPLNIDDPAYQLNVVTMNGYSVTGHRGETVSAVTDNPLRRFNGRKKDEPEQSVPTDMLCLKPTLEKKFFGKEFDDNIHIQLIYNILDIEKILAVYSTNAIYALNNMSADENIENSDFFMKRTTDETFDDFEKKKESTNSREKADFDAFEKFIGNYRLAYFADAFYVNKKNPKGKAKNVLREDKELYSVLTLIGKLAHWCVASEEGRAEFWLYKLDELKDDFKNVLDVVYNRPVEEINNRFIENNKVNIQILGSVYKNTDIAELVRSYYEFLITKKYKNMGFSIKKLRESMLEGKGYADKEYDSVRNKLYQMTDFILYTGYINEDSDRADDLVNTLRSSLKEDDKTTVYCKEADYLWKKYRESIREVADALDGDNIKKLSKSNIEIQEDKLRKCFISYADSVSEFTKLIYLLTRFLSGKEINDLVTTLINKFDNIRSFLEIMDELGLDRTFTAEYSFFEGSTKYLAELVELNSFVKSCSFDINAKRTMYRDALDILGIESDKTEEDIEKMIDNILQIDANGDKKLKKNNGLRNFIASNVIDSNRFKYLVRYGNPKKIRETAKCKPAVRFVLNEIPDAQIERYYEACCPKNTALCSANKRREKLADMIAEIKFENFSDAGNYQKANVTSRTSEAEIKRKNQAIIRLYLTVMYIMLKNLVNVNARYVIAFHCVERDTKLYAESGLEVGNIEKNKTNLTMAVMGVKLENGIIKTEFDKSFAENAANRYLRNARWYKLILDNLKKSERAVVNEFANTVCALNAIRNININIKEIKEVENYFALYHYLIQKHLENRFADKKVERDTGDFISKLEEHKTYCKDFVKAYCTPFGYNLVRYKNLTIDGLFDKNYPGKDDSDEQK

B1: target 3 insA 3' of 14,insU 3' of 4 (mixed)
RNA 1: CACCCGUGCAAAAUUGCAGGGGUCUAAAACGACCUGAAUAUUUCAGAUCAAA
RNA 2: GGGAAUGGAUCCACAUCUACGAAUUCGUUUUUGAUCUGAAAAUAUUCAGUGUCUGCAGAUCGGAAGAGCACACGU
B2: target 3 G4A,A9G (mixed)
RNA 1: CACCCGUGCAAAAUUGCAGGGGUCUAAAACGACCUGAAUAUUUCAGAUCAAA
RNA 2: GGGAAUGGAUCCACAUCUACGAAUUCGUUUUUGAUCUGAAAUGUUCAAGUCUGCAGAUCGGAAGAGCACACGU
B3: target 3 insU 3' of 11,insG 3' of 5 (mixed)
RNA 1: CACCCGUGCAAAAUUGCAGGGGUCUAAAACGACCUGAAUAUUUCAGAUCAAA
RNA 2: GGGAAUGGAUCCACAUCUACGAAUUCGUUUUUGAUCUGAAAUUAUUCAGGGUCUGCAGAUCGGAAGAGCACACGU
B4: target 3 insU 3' of 16,insG 3' of 2 (mixed)
RNA 1: CACCCGUGCAAAAUUGCAGGGGUCUAAAACGACCUGAAUAUUUCAGAUCAAA
RNA 2: GGGAAUGGAUCCACAUCUACGAAUUCGUUUUUGAUCUUGAAAUAUUCAGGUGCUGCAGAUCGGAAGAGCACACGU
B5: target 3 A5U,U22C (mixed)
RNA 1: CACCCGUGCAAAAUUGCAGGGGUCUAAAACGACCUGAAUAUUUCAGAUCAAA
RNA 2: GGGAAUGGAUCCACAUCUACGAAUUCGUUCUUGAUCUGAAAUAUUCUGGUCUGCAGAUCGGAAGAGCACACGU
B6: target 3 insA 3' of 15,insC 3' of 11 (mixed)
RNA 1: CACCCGUGCAAAAUUGCAGGGGUCUAAAACGACCUGAAUAUUUCAGAUCAAA
RNA 2: GGGAAUGGAUCCACAUCUACGAAUUCGUUUUUGAUCUAGAAACUAUUCAGGUCUGCAGAUCGGAAGAGCACACGU
B7: target 3 insU 3' of 22,insU 3' of 6 (mixed)
RNA 1: CACCCGUGCAAAAUUGCAGGGGUCUAAAACGACCUGAAUAUUUCAGAUCAAA
RNA 2: GGGAAUGGAUCCACAUCUACGAAUUCGUUUUUUGAUCUGAAAUAUUCUAGGUCUGCAGAUCGGAAGAGCACACGU
B8: target 3 insA 3' of 15,insU 3' of 3 (mixed)
RNA 1: CACCCGUGCAAAAUUGCAGGGGUCUAAAACGACCUGAAUAUUUCAGAUCAAA
RNA 2: GGGAAUGGAUCCACAUCUACGAAUUCGUUUUUGAUCUAGAAAUAUUCAGGUUCUGCAGAUCGGAAGAGCACACGU
B9: target 3 C1U,U7C (mixed)
RNA 1: CACCCGUGCAAAAUUGCAGGGGUCUAAAACGACCUGAAUAUUUCAGAUCAAA
RNA 2: GGGAAUGGAUCCACAUCUACGAAUUCGUUUUUGAUCUGAAAUAUCCAGGUUUGCAGAUCGGAAGAGCACACGU
B10: target 3 U2C,U8G (mixed)
RNA 1: CACCCGUGCAAAAUUGCAGGGGUCUAAAACGACCUGAAUAUUUCAGAUCAAA
RNA 2: GGGAAUGGAUCCACAUCUACGAAUUCGUUUUUGAUCUGAAAUAGUCAGGCCUGCAGAUCGGAAGAGCACACGU
B11: target 3 C1A,U7C (mixed)
RNA 1: CACCCGUGCAAAAUUGCAGGGGUCUAAAACGACCUGAAUAUUUCAGAUCAAA
RNA 2: GGGAAUGGAUCCACAUCUACGAAUUCGUUUUUGAUCUGAAAUAUCCAGGUAUGCAGAUCGGAAGAGCACACGU
B12: target 3 insU 3' of 13,insA 3' of 6 (mixed)
RNA 1: CACCCGUGCAAAAUUGCAGGGGUCUAAAACGACCUGAAUAUUUCAGAUCAAA
RNA 2: GGGAAUGGAUCCACAUCUACGAAUUCGUUUUUGAUCUGAUAAUAUUCAAGGUCUGCAGAUCGGAAGAGCACACGU
B13: target 3 insU 3' of 5,insA 3' of 4 (mixed)
RNA 1: CACCCGUGCAAAAUUGCAGGGGUCUAAAACGACCUGAAUAUUUCAGAUCAAA
RNA 2: GGGAAUGGAUCCACAUCUACGAAUUCGUUUUUGAUCUGAAAUAUUCAUGAGUCUGCAGAUCGGAAGAGCACACGU
B14: target 3 insU 3' of 6,insA 3' of 3 (mixed)
RNA 1: CACCCGUGCAAAAUUGCAGGGGUCUAAAACGACCUGAAUAUUUCAGAUCAAA
RNA 2: GGGAAUGGAUCCACAUCUACGAAUUCGUUUUUGAUCUGAAAUAUUCUAGGAUCUGCAGAUCGGAAGAGCACACGU
B15: target 3 insA 3' of 22,insU 3' of 5 (mixed)
RNA 1: CACCCGUGCAAAAUUGCAGGGGUCUAAAACGACCUGAAUAUUUCAGAUCAAA
RNA 2: GGGAAUGGAUCCACAUCUACGAAUUCGUUUAUUGAUCUGAAAUAUUCAUGGUCUGCAGAUCGGAAGAGCACACGU
B16: target 3 U7C (mixed)
RNA 1: CACCCGUGCAAAAUUGCAGGGGUCUAAAACGACCUGAAUAUUUCAGAUCAAA
RNA 2: GGGAAUGGAUCCACAUCUACGAAUUCGUUUUUGAUCUGAAAUAUCCAGGUCUGCAGAUCGGAAGAGCACACGU
B17: target 3 G3U,U8C (mixed)
RNA 1: CACCCGUGCAAAAUUGCAGGGGUCUAAAACGACCUGAAUAUUUCAGAUCAAA
RNA 2: GGGAAUGGAUCCACAUCUACGAAUUCGUUUUUGAUCUGAAAUACUCAGUUCUGCAGAUCGGAAGAGCACACGU
B18: target 3 insC 3' of 7,insU 3' of 3 (mixed)
RNA 1: CACCCGUGCAAAAUUGCAGGGGUCUAAAACGACCUGAAUAUUUCAGAUCAAA
RNA 2: GGGAAUGGAUCCACAUCUACGAAUUCGUUUUUGAUCUGAAAUAUUCCAGGUUCUGCAGAUCGGAAGAGCACACGU
B19: target 3 A5U,A18G (mixed)
RNA 1: CACCCGUGCAAAAUUGCAGGGGUCUAAAACGACCUGAAUAUUUCAGAUCAAA
RNA 2: GGGAAUGGAUCCACAUCUACGAAUUCGUUUUUGGUCUGAAAUAUUCUGGUCUGCAGAUCGGAAGAGCACACGU
B20: target 3 G4U,A12U (mixed)
RNA 1: CACCCGUGCAAAAUUGCAGGGGUCUAAAACGACCUGAAUAUUUCAGAUCAAA
RNA 2: GGGAAUGGAUCCACAUCUACGAAUUCGUUUUUGAUCUGAUAUAUUCAUGUCUGCAGAUCGGAAGAGCACACGU
B21: target 3 del3,del4 (mixed)
RNA 1: CACCCGUGCAAAAUUGCAGGGGUCUAAAACGACCUGAAUAUUUCAGAUCAAA
RNA 2: GGGAAUGGAUCCACAUCUACGAAUUCGUUUUUGAUCUGAAAUAUUCAUCUGCAGAUCGGAAGAGCACACGU
B22: target 3 C6G,U8A (mixed)
RNA 1: CACCCGUGCAAAAUUGCAGGGGUCUAAAACGACCUGAAUAUUUCAGAUCAAA
RNA 2: GGGAAUGGAUCCACAUCUACGAAUUCGUUUUUGAUCUGAAAUAAUGAGGUCUGCAGAUCGGAAGAGCACACGU
B23: target 3 U2C,G4C (mixed)
RNA 1: CACCCGUGCAAAAUUGCAGGGGUCUAAAACGACCUGAAUAUUUCAGAUCAAA
RNA 2: GGGAAUGGAUCCACAUCUACGAAUUCGUUUUUGAUCUGAAAUAUUCACGCCUGCAGAUCGGAAGAGCACACGU
B24: target 3 A5G,U8A (mixed)
RNA 1: CACCCGUGCAAAAUUGCAGGGGUCUAAAACGACCUGAAUAUUUCAGAUCAAA
RNA 2: GGGAAUGGAUCCACAUCUACGAAUUCGUUUUUGAUCUGAAAUAAUCGGGUCUGCAGAUCGGAAGAGCACACGU
B25: target 3 A5C,U22C (mixed)
RNA 1: CACCCGUGCAAAAUUGCAGGGGUCUAAAACGACCUGAAUAUUUCAGAUCAAA
RNA 2: GGGAAUGGAUCCACAUCUACGAAUUCGUUCUUGAUCUGAAAUAUUCCGGUCUGCAGAUCGGAAGAGCACACGU
B26: target 1 C21A,C22U (mixed)
RNA 1: CACCCGUGCAAAAAUGCAGGGGUCUAAAACUGAGCGGAUAACCUCUCUAUGG
RNA 2: GGGAAUGGAUCCACAUCUACGAAUUCGUAUAAUAGAGAGGUUAUCCGCUCACCGAGAUCGGAAGAGCACACGU
B27: target 1 U3A,U11C (mixed)
RNA 1: CACCCGUGCAAAAAUGCAGGGGUCUAAAACUGAGCGGAUAACCUCUCUAUGG
RNA 2: GGGAAUGGAUCCACAUCUACGAAUUCGUACCAUAGAGAGGCUAUCCGCACACCGAGAUCGGAAGAGCACACGU
B28: target 1 G12U,A18U (mixed)
RNA 1: CACCCGUGCAAAAAUGCAGGGGUCUAAAACUGAGCGGAUAACCUCUCUAUGG
RNA 2: GGGAAUGGAUCCACAUCUACGAAUUCGUACCAUUGAGAGUUUAUCCGCUCACCGAGAUCGGAAGAGCACACGU

What follows are binders tested against T1, EsCas13d, nuclease-dead (assay: crRNA (strand 1, pre-loaded); Mg2+; 40 mM Tris-HCl pH 7.5, 150 mM NaCl, 6 mM MgCl2, 1 mM DTT, 0.1% Tween-20, 0.2 mg/ml BSA; 25 C; 10 min per concentration, then washed). Details: tags: His6-TwinStrep-SUMO cleaved; N-terminal SNAP kept (SNAP-Surface 488); label: 3' end held by stalled T7 RNA polymerase.
For B1, the Kd was 43.5 ± 14.5 nM.
B2 was tested, and the Kd was 52.5 ± 7 nM.
Work on B3 yielded a Kd of 104 ± 29 nM.
B4 showed a Kd of 16.1 ± 1.9 nM.
B5 was tested, and the Kd was 70.5 ± 20 nM.
B6 gave a Kd of roughly 90 nM.
With B7 the Kd was 27.5 ± 3.7 nM.
Work on B8 yielded a Kd of 59.5 ± 12.5 nM.
For B9, the Kd was 58.5 ± 16 nM.
Work on B10 yielded a Kd of 95.5 ± 20.5 nM.
Binder B11 has a Kd of 100 ± 40 nM.
B12 showed a Kd of 99 ± 25 nM.
B13 showed a Kd of 9.9 ± 1.8 nM.
For B14, the Kd was 11.2 ± 1.3 nM.
In the case of B15, the Kd is reported as 11.1 ± 1.15 nM.
For B16, the Kd was 56 ± 7 nM.
B17 was tested, and the Kd was 103 ± 17.5 nM.
With B18 the Kd was 49.5 ± 10 nM.
B19 showed a Kd of 117 ± 25 nM.
B20 showed a Kd of 52 ± 13.5 nM.
B21 gave a Kd of 13.9 ± 1.4 nM.
In the case of B22, the Kd is reported as 81.5 ± 10 nM.
In the case of B23, the Kd is reported as 18.4 ± 2.75 nM.
With B24 the Kd was 80.5 ± 15 nM.
For B25, the Kd was 84 ± 31 nM.
For B26, the Kd was 45 ± 7 nM.
B27 gave a Kd of 10.3 ± 1.2 nM.
With B28 the Kd was 44 ± 10 nM.
